Data reported in publication PMC6441084, “The formin Drosophila homologue of Diaphanous2 (Diaph2) controls microtubule dynamics in colorectal cancer cells independent of its FH2-domain” (Scientific Reports, 2019).

B1: full-length (FL) Diaph2 (Drosophila homologue of Diaphanous2), GST-fusion protein (natural protein, human, UniProt O60879 1-1101, looked up)
chain: MEQPGAAASGAGGGSEEPGGGRSNKRSAGNRAANEEETKNKPKLNIQIKTLADDVRDRITSFRKSTVKKEKPLIQHPIDSQVAMSEFPAAQPLYDERSLNLSEKEVLDLFEKMMEDMNLNEEKKAPLRNKDFTTKREMVVQYISATAKSGGLKNSKHECTLSSQEYVHELRSGISDEKLLNCLESLRVSLTSNPVSWVNNFGHEGLGLLLDELEKLLDKKQQENIDKKNQYKLIQCLKAFMNNKFGLQRILGDERSLLLLARAIDPKQPNMMTEIVKILSAICIVGEENILDKLLGAITTAAERNNRERFSPIVEGLENQEALQLQVACMQFINALVTSPYELDFRIHLRNEFLRSGLKTMLPDLKEKENDELDIQLKVFDENKEDDLTELSHRLNDIRAEMDDMNEVYHLLYNMLKDTAAENYFLSILQHFLLIRNDYYIRPQYYKIIEECVSQIVLHCSGMDPDFKYRQRLDIDLTHLIDSCVNKAKVEESEQKAAEFSKKFDEEFTARQEAQAELQKRDEKIKELEAEIQQLRTQAQVLSSSSGIPGPPAAPPLPGVGPPPPPPAPPLPGGAPLPPPPPPLPGMMGIPPPPPPPLLFGGPPPPPPLGGVPPPPGISLNLPYGMKQKKMYKPEVSMKRINWSKIEPTELSENCFWLRVKEDKFENPDLFAKLALNFATQIKVQKNAEALEEKKTGPTKKKVKELRILDPKTAQNLSIFLGSYRMPYEDIRNVILEVNEDMLSEALIQNLVKHLPEQKILNELAELKNEYDDLCEPEQFGVVMSSVKMLQPRLSSILFKLTFEEHINNIKPSIIAVTLACEELKKSESFNRLLELVLLVGNYMNSGSRNAQSLGFKINFLCKIRDTKSADQKTTLLHFIADICEEKYRDILKFPEELEHVESASKVSAQILKSNLASMEQQIVHLERDIKKFPQAENQHDKFVEKMTSFTKTAREQYEKLSTMHNNMMKLYENLGEYFIFDSKTVSIEEFFGDLNNFRTLFLEAVRENNKRREMEEKTRRAKLAKEKAEQEKLERQKKKKQLIDINKEGDETGVMDNLLEALQSGAAFRDRRKRIPRNPDNRRVPLERSRSRHNGAISSK
B2: FH2-domain of Diaph2 (aa 624-1049), GST-fusion protein (domain or fragment, human, UniProt O60879 624-1049, looked up)
chain: YGMKQKKMYKPEVSMKRINWSKIEPTELSENCFWLRVKEDKFENPDLFAKLALNFATQIKVQKNAEALEEKKTGPTKKKVKELRILDPKTAQNLSIFLGSYRMPYEDIRNVILEVNEDMLSEALIQNLVKHLPEQKILNELAELKNEYDDLCEPEQFGVVMSSVKMLQPRLSSILFKLTFEEHINNIKPSIIAVTLACEELKKSESFNRLLELVLLVGNYMNSGSRNAQSLGFKINFLCKIRDTKSADQKTTLLHFIADICEEKYRDILKFPEELEHVESASKVSAQILKSNLASMEQQIVHLERDIKKFPQAENQHDKFVEKMTSFTKTAREQYEKLSTMHNNMMKLYENLGEYFIFDSKTVSIEEFFGDLNNFRTLFLEAVRENNKRREMEEKTRRAKLAKEKAEQEKLERQKKKKQLIDINKE

Target: microtubules (MTs) polymerised from purified tubulin (Cytoskeleton, # T240) (UniProt P02550 1-451)
Assay: cell-based or functional assay

Binder | rate of MT-polymerization (turbidity at 340 nm, no taxol; 2 µM tubulin, 0.2 µM Diaph2 protein), fold against the buffer control [fold]
B1 | 40
B2 | 4
